Data on two substances can be found in article PMC2632915.

Experiment [1] has as its target Hera_208–419 (C-terminal RecA domain and dimerization domain of T. thermophilus Hera) (Thermus thermophilus). In words: SEC. (Size exclusion chromatography separates by hydrodynamic size, large species first.)
For experiment [2] the target is unchanged. In words: SEC. The source holds these as a separate data set.
Experiment [3] has the same target. The experiment in a line: crystal structure.
The target of experiment [4] is Hera_208–510 (C-terminal RecA domain, dimerization domain and RNA-binding domain of T. thermophilus Hera) (Thermus thermophilus). The experiment in a line: SEC.

A word on the stoichiometry N: it is a count of units in the complex or per binding partner. As to “Hera_208–419 (C-terminal RecA domain and dimerization domain of T. thermophilus Hera) (domain or fragment)”, the stoichiometry N in experiment [1], in experiment [2] and in experiment [3] was 2 each time.
In the case of “Hera_208–510 (C-terminal RecA domain, dimerization domain and RNA-binding domain of T. thermophilus Hera) (domain or fragment)”, the stoichiometry N in experiment [4] is 2.
